Test results as given in US20230416709.

Columns and labels:
Assay in all cases: cell_activity
[1] = test system: B2M_PPR(R)-FokI M50 (Flavobacterium okeanokoites (FokI domain)); settings: Fn reporter HEK293T, paired with B2M_PPR(L)
[2] = test system: GFP_TALEN(R)-FokI M47 (Flavobacterium okeanokoites (FokI domain)); settings: SSA reporter HEK293T, pair; value in figure only
[3] = test system: GFP_TALEN(R)-FokI M48 (Flavobacterium okeanokoites (FokI domain)); settings: SSA reporter HEK293T, pair; value in figure only
[4] = test system: GFP_TALEN(R)-FokI M49 (Flavobacterium okeanokoites (FokI domain)); settings: SSA reporter HEK293T, pair; value in figure only
[5] = test system: GFP_TALEN(R)-FokI M50 (Flavobacterium okeanokoites (FokI domain)); settings: SSA reporter HEK293T, pair; value in figure only
[6] = test system: GFP_PPR(R)-FokI M50 (Flavobacterium okeanokoites (FokI domain)); settings: Fn reporter HEK293T, paired with GFP_PPR(L)
[7] = test system: TALEN-A-FokI M47 (MBP fusion) (Flavobacterium okeanokoites (FokI domain)); settings: E. coli B2P, 0.1 mM IPTG 15 min 37 C
[8] = test system: TALEN-A-FokI M48 (MBP fusion) (Flavobacterium okeanokoites (FokI domain)); settings: E. coli B2P, 0.1 mM IPTG 15 min 37 C
[9] = test system: TALEN-A-FokI M49 (MBP fusion) (Flavobacterium okeanokoites (FokI domain)); settings: E. coli B2P, 0.1 mM IPTG 15 min 37 C
[10] = test system: TALEN-A-FokI M50 (MBP fusion) (Flavobacterium okeanokoites (FokI domain)); settings: E. coli B2P, 0.1 mM IPTG 15 min 37 C; 24% in second experiment (p75)
[11] = test system: TALEN-A-FokI M50(G473) (MBP fusion) R473G (Flavobacterium okeanokoites (FokI domain)); settings: E. coli B2P; M50 24% in same experiment
[12] = test system: TALEN-A-FokI wild-type (MBP fusion) (Flavobacterium okeanokoites (FokI domain)); settings: E. coli B2P, 0.1 mM IPTG 15 min 37 C
[13] = test system: B2M_TALEN(L)-FokI M47 (Flavobacterium okeanokoites (FokI domain)); settings: SSA reporter HEK293T, pair; value in figure only
[14] = test system: B2M_TALEN(L)-FokI M48 (Flavobacterium okeanokoites (FokI domain)); settings: SSA reporter HEK293T, pair; value in figure only
[15] = test system: B2M_TALEN(L)-FokI M49 (Flavobacterium okeanokoites (FokI domain)); settings: SSA reporter HEK293T, pair; value in figure only
[16] = test system: B2M_TALEN(L)-FokI M50 (Flavobacterium okeanokoites (FokI domain)); settings: SSA reporter HEK293T, pair; value in figure only
[17] = test system: GFP_PPR(L)-FokI M50 (Flavobacterium okeanokoites (FokI domain)); settings: Fn reporter HEK293T, paired with GFP_PPR(R)
[18] = test system: B2M_PPR(L)-FokI M50 (Flavobacterium okeanokoites (FokI domain)); settings: Fn reporter HEK293T, paired with B2M_PPR(R)
[19] = test system: GFP_TALEN(L)-FokI M47 (Flavobacterium okeanokoites (FokI domain)); settings: SSA reporter HEK293T, pair; value in figure only
[20] = test system: GFP_TALEN(L)-FokI M48 (Flavobacterium okeanokoites (FokI domain)); settings: SSA reporter HEK293T, pair; value in figure only
[21] = test system: GFP_TALEN(L)-FokI M49 (Flavobacterium okeanokoites (FokI domain)); settings: SSA reporter HEK293T, pair; value in figure only
[22] = test system: GFP_TALEN(L)-FokI M50 (Flavobacterium okeanokoites (FokI domain)); settings: SSA reporter HEK293T, pair; value in figure only
[23] = test system: B2M_TALEN(R)-FokI M47 (Flavobacterium okeanokoites (FokI domain)); settings: SSA reporter HEK293T, pair; value in figure only
[24] = test system: B2M_TALEN(R)-FokI M48 (Flavobacterium okeanokoites (FokI domain)); settings: SSA reporter HEK293T, pair; value in figure only
[25] = test system: B2M_TALEN(R)-FokI M49 (Flavobacterium okeanokoites (FokI domain)); settings: SSA reporter HEK293T, pair; value in figure only
[26] = test system: B2M_TALEN(R)-FokI M50 (Flavobacterium okeanokoites (FokI domain)); settings: SSA reporter HEK293T, pair; value in figure only

“AGCAATTCAGGAAA (double strand) [B2M_PPR(R) half-site]” was tested, and the activity (fold vs WT FokI) [1] was 2.2.

With “TTGCCGTAGGTGGCA (double strand) [GFP_TALEN(R) half-site]” the activity (fold vs WT FokI) [2] was over 1, the activity (fold vs WT FokI) [3] was over 1 and the activity (fold vs WT FokI) [4] was over 1. It also gave an activity (fold vs WT FokI) [5] of over 1.

For “CCTGGACGTAGCCTT (double strand) [GFP_PPR(R) half-site]”, the activity (fold vs WT FokI) [6] was 1.5.

For “AGCCGAAATCATCGCAGCCGCTGCCGCGAGCTCCTGCGATGATTTCGGCT (double strand) [TALEN-A target site (inverted repeat)]”, the activity [7] was 29 % survival, the activity [8] was 37 % survival and the activity [9] was 45 % survival. For the same sequence, the activity [10] was 28 % survival, the activity [11] was under 0.05 % survival and the activity [12] was 0.0001 % survival.

With “CCAAAGATTCAGGT (double strand) [B2M_TALEN(L) half-site]” the activity (fold vs WT FokI) [13] was over 1, the activity (fold vs WT FokI) [14] was over 1 and the activity (fold vs WT FokI) [15] was over 1. The activity (fold vs WT FokI) [16] was over 1.

Sequence “ACGACTTCTTCAAGT (double strand) [GFP_PPR(L) half-site]” has an activity (fold vs WT FokI) [17] of 1.5.

“AATGGAAAGTCAAA (double strand) [B2M_PPR(L) half-site]” gave an activity (fold vs WT FokI) [18] of 2.2.

“CAGCGTGTCCGGCGA (double strand) [GFP_TALEN(L) half-site]” was tested, and the activity (fold vs WT FokI) [19] was over 1, the activity (fold vs WT FokI) [20] was over 1 and the activity (fold vs WT FokI) [21] was over 1. It also gave an activity (fold vs WT FokI) [22] of over 1.

Sequence “GACTTTCCATTCTC (double strand) [B2M_TALEN(R) half-site]” has an activity (fold vs WT FokI) [23] of over 1, an activity (fold vs WT FokI) [24] of over 1 and an activity (fold vs WT FokI) [25] of over 1. It also gave an activity (fold vs WT FokI) [26] of over 1.
